# Data from patent US20110223216A1, “Nanoparticles and Porous Particles and Methods of Making the Same” (WAYNE STATE UNIVERSITY, priority 2008, published 2011).
# Test: Sedimentation rate / physical stability of micronized drug dispersions in HFA227 with or without chitosan-PLA nanoparticles
# Method: Sedimentation rate of micronized insulin in HFA 227 were conducted to test the physical stability of dispersions.
# [1] = pure (bare) drug particles in HFA227
substance,measurement,setting,value
insulin,creaming of dispersion,[1],creaming out in seconds
same,redispersibility,[1],not being redispersible
same,physical stability of dispersion,"pure (bare) drug particles, 2 mg/ml in HFA227, 298K, saturation pressure",poor stability
same,physical stability of dispersion,"upon addition of chitosan-PLA nanoparticles (1 or 2 mg/ml), HFA227",improved
same,redispersibility,"with chitosan-PLA nanoparticles, HFA227, after storage",can be redispersed simply by hand-shaking even after several days of storage
